Article PMC10714992, “A monoclonal antibody targeting spore wall protein 1 inhibits the proliferation of Nosema bombycis in Bombyx mori” (Microbiology Spectrum, 2023)

How the values were obtained:
[1] = target: T1, recombinant GST-SWP1 fusion protein (Nosema bombycis CVCC 102059, UniProt B3STN5); assay: ELISA; indirect ELISA: plates coated with recombinant GST-SWP1 (0.3 ug/well) overnight at 4 C, recombinant 6xHis-tagged antibodies from baculovirus added for 1 h at room temperature, detected with anti-6xHis rabbit mAb; titer; conditions: both partners purified
T1 construct: spore wall protein 1 (SWP1) of Nosema bombycis, gene cloned by PCR into pGEX-4T-1 (BamH I / XhoI); also called rGST-SWP1; source: E. coli Rosetta, pGEX-4T-1, purified (Glutathione Sepharose)

[2] = target: T2, prokaryotic-expressed recombinant SWP1 (Nosema bombycis CVCC 102059, UniProt B3STN5); assay: Western blot; rSWP1 separated by SDS-PAGE; hemolymph or cell lysate of transgenic silkworms used as primary antibody; conditions: one partner purified
T2 construct: spore wall protein 1 (SWP1) of Nosema bombycis, gene cloned by PCR from cDNA into pET30a (BamH I / HindIII); also called rSWP1; source: E. coli Rosetta, pET30a, purified (Ni-NTA)

[3] = target: T3, Nosema bombycis spore wall protein 1, native (Nosema bombycis (strain CQ1 / CVCC …, UniProt B3STN5)); assay: Western blot; alkali-soluble germination (spore) proteins separated by SDS-PAGE on PVDF; culture supernatant or lysate of G9-Neo, scFvG9-Neo and NscFvG9-Neo BmE cells used as primary antibody; conditions: partners not purified
T3 construct: spore wall protein 1 (SWP1) of Nosema bombycis, gene locus NBO_552g0005; also called SWP1; native SWP1
T3 sequence (B3STN5 20-278): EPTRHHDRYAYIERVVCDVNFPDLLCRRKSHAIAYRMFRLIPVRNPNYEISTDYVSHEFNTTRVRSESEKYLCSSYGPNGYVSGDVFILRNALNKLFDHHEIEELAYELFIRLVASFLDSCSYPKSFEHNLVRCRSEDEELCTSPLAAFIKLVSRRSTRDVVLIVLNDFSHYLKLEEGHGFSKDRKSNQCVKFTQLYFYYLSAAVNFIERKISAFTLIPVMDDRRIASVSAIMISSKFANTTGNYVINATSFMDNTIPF

T2 sequence (B3STN5 20-278): as above
T1 sequence (B3STN5 20-278): as above

B1: recombinant scFvG9 from the baculovirus expression system (scFv, V domains shown)
VH: QVQLQQSGAELARPGASVKMSCKASGYTFTGFSIHWVKQRPGQGLEWIGYINPSSAYTKYNQNFKDKATLTADKSSSTAYMQLNSLTSDDSAVYYCAYRYDVGDYWGQGTSVTVSS
VL: DIVITQSPSSLAVSAGEKVTLSCKSSQSLFNSRTRKNYLAWYQQKPGQSPKLLIYWASTRESGVPDRFTGSGSGTDFTLTISSVQAEDLAVYYCKQSYYLWTFGGGAKLEIK
notes: variable domain of the heavy chain of m1; (G4S)3 linker; variable domain of the light chain of m1; The construct contains a signal peptide and a 6xHis tag; Detected in the ELISA by an anti-6xHis antibody; also called rscFvG9; pFast-rscFvG9; source: Bac-to-Bac baculovirus system, insect cells (Sf-900 III / Sf9), serum-free medium, purified (Ni-NTA); not shown: His6, C-terminal, kept
[1]
  binding result: binds

B2: G9 intact antibody expressed in G9 transgenic silkworm (antibody, V domains shown)
VH: QVQLQQSGAELARPGASVKMSCKASGYTFTGFSIHWVKQRPGQGLEWIGYINPSSAYTKYNQNFKDKATLTADKSSSTAYMQLNSLTSDDSAVYYCAYRYDVGDYWGQGTSVTVSS
VL: DIVITQSPSSLAVSAGEKVTLSCKSSQSLFNSRTRKNYLAWYQQKPGQSPKLLIYWASTRESGVPDRFTGSGSGTDFTLTISSVQAEDLAVYYCKQSYYLWTFGGGAKLEIK
notes: as the heavy chain of m1 (G9H); as the light chain of m1 (G9L); Same IE1-G9H-SV40 + IE1-G9L-SV40 cassettes as m2, in pBac[A3-EGFP]; G9H has a signal peptide at the 5' end; It is not clear whether the light chain also carries a signal peptide and His tag; source: transgenic silkworm (Bombyx mori), hemolymph and cell lysate
[2]
  binding result: binds

B3: recombinant G9 intact antibody (rG9H + rG9L) from the baculovirus expression system (antibody, V domains shown)
VH: QVQLQQSGAELARPGASVKMSCKASGYTFTGFSIHWVKQRPGQGLEWIGYINPSSAYTKYNQNFKDKATLTADKSSSTAYMQLNSLTSDDSAVYYCAYRYDVGDYWGQGTSVTVSS
VL: DIVITQSPSSLAVSAGEKVTLSCKSSQSLFNSRTRKNYLAWYQQKPGQSPKLLIYWASTRESGVPDRFTGSGSGTDFTLTISSVQAEDLAVYYCKQSYYLWTFGGGAKLEIK
notes: as the heavy chain of m1 (rG9H); as the light chain of m1 (rG9L); rG9H contains a signal peptide at the 5' end and is driven by the polyhedrin promoter; rG9L is driven by the p10 promoter; Detected in the ELISA by an anti-6xHis antibody; also called pFast-rG9; source: Bac-to-Bac baculovirus system, insect cells (Sf-900 III / Sf9), serum-free medium, purified (Ni-NTA); not shown: His6, C-terminal, …
[1]
  binding result: binds

B4: NscFvG9 expressed in NscFvG9-Neo transgenic BmE cells (scFv, V domains shown)
VH: QVQLQQSGAELARPGASVKMSCKASGYTFTGFSIHWVKQRPGQGLEWIGYINPSSAYTKYNQNFKDKATLTADKSSSTAYMQLNSLTSDDSAVYYCAYRYDVGDYWGQGTSVTVSS
VL: DIVITQSPSSLAVSAGEKVTLSCKSSQSLFNSRTRKNYLAWYQQKPGQSPKLLIYWASTRESGVPDRFTGSGSGTDFTLTISSVQAEDLAVYYCKQSYYLWTFGGGAKLEIK
notes: variable domain of the heavy chain of m1; (G4S)3 linker; variable domain of the light chain of m1; scFvG9 with the signal peptide of VH removed, expressed intracellularly; also called scFv without the secretory signal peptide
[3]
  binding result: binds

B5: scFvG9 expressed in scFvG9-Neo transgenic BmE cells (scFv, V domains shown)
VH: QVQLQQSGAELARPGASVKMSCKASGYTFTGFSIHWVKQRPGQGLEWIGYINPSSAYTKYNQNFKDKATLTADKSSSTAYMQLNSLTSDDSAVYYCAYRYDVGDYWGQGTSVTVSS
VL: DIVITQSPSSLAVSAGEKVTLSCKSSQSLFNSRTRKNYLAWYQQKPGQSPKLLIYWASTRESGVPDRFTGSGSGTDFTLTISSVQAEDLAVYYCKQSYYLWTFGGGAKLEIK
notes: variable domain of the heavy chain of m1; (G4S)3 linker; variable domain of the light chain of m1; The construct encodes an N-terminal secretion signal peptide from the CL40 anti-EBV/HHV-4 gHgL immunoglobulin heavy chain
[3]
  binding result: binds

B6: scFvG9 expressed in scFvG9 transgenic silkworm (scFv, V domains shown)
VH: QVQLQQSGAELARPGASVKMSCKASGYTFTGFSIHWVKQRPGQGLEWIGYINPSSAYTKYNQNFKDKATLTADKSSSTAYMQLNSLTSDDSAVYYCAYRYDVGDYWGQGTSVTVSS
VL: DIVITQSPSSLAVSAGEKVTLSCKSSQSLFNSRTRKNYLAWYQQKPGQSPKLLIYWASTRESGVPDRFTGSGSGTDFTLTISSVQAEDLAVYYCKQSYYLWTFGGGAKLEIK
notes: variable domain of the heavy chain of m1; (G4S)3 linker; variable domain of the light chain of m1; Same IE1-scFvG9-SV40 cassette as m3, which encodes a secretion signal peptide; also called scFv9; source: transgenic silkworm (Bombyx mori), hemolymph
[2]
  binding result: binds

B7: NscFvG9 expressed in NscFvG9 transgenic silkworm (scFv, V domains shown)
VH: QVQLQQSGAELARPGASVKMSCKASGYTFTGFSIHWVKQRPGQGLEWIGYINPSSAYTKYNQNFKDKATLTADKSSSTAYMQLNSLTSDDSAVYYCAYRYDVGDYWGQGTSVTVSS
VL: DIVITQSPSSLAVSAGEKVTLSCKSSQSLFNSRTRKNYLAWYQQKPGQSPKLLIYWASTRESGVPDRFTGSGSGTDFTLTISSVQAEDLAVYYCKQSYYLWTFGGGAKLEIK
notes: variable domain of the heavy chain of m1; (G4S)3 linker; variable domain of the light chain of m1; Same IE1-NscFvG9-SV40 cassette as m4 (no signal peptide), in pBac[3xP3-EGFP]; also called NscFv9; source: transgenic silkworm (Bombyx mori), cell lysate
[2]
  binding result: binds

B8: G9 intact antibody expressed in G9-Neo transgenic BmE cells (antibody, V domains shown)
VH: QVQLQQSGAELARPGASVKMSCKASGYTFTGFSIHWVKQRPGQGLEWIGYINPSSAYTKYNQNFKDKATLTADKSSSTAYMQLNSLTSDDSAVYYCAYRYDVGDYWGQGTSVTVSS
VL: DIVITQSPSSLAVSAGEKVTLSCKSSQSLFNSRTRKNYLAWYQQKPGQSPKLLIYWASTRESGVPDRFTGSGSGTDFTLTISSVQAEDLAVYYCKQSYYLWTFGGGAKLEIK
notes: as the heavy chain of m1 (G9H); as the light chain of m1 (G9L); G9H was amplified with a signal peptide at the 5' end and a 6xHis tag at the 3' end; The light chain was made 'similarly', so it is not clear whether it also carries them; IE1 promoter; also called G9H + G9L
[3]
  binding result: binds
